Measured values reported in patent US12472152B2, “Molecular entrapment via homopolymer self-assembly” (Northwestern University, priority 2019, dated 2025).

Key:
[1] = Loading experiments: encapsulation efficiency during PPSU20 self-assembly (fluorescence of supernatant); type: physicochemical
Method: Loading experiments. For the loading of Nile red, nanogels were prepared using pure water and Nile red-containing (0.1 mg/mL) DMSO solutions of PPSU20. For the loading of water-soluble drugs, aqueous solutions of FITC (0.05 mg/mL), doxorubicin hydrochloride (1 mg/mL), dextran (1 mg/mL), albumin (various concentrations), GFP (0.2 mg/mL), RNA (0.2 mg/mL), DNA (0.2 mg/mL), and DMSO solutions of PPSU20 (25 mg/mL) were used. Typically, 100 μL of the corresponding aqueous solution were mixed stepwise (10 μL/step or 100 μL/step) with 50 μL of PPSU20 solution under vortex, then another 400 μL of water was added. After centrifugation at 16000×g for 10 min, fluorescence of the supernatant was measured and the encapsulation efficiencies were calculated.

[2] = Solubility tests using PPSU20 crystals in water and common organic solvents; type: physicochemical; details: in words
Description: PPSU can be synthesized from complete oxidation of poly(propylene sulfide) (PPS) (14, 15), which is known for its hydrophobic—hydrophilic transition upon oxidation (16-18). However, complete oxidation of PPS had not been previously achieved, since standard oxidation of PPS generates random copolymers of poly(propylene sulfoxide)-co-poly(propylene sulfone) (19). We successfully synthesized PPSU20 (20 sulfones, FIG. 5) using an atypically high concentration of H2O2. Highly concentrated H2O2 was generated in situ upon vacuum evaporation during the oxidizing reaction. […] Given that the chemical structure of PPSU (FIG. 1a) is characterized by a positively charged backbone with negatively charged pendent oxygen atoms (20), electrostatic repulsion among oxygen atoms (21) was expected to result in weak inter- and intra-chain associations.

trypsin protease = target: T1, trypsin protease (Sus scrofa, UniProt P00761); experiment: Trypsin digestion of FITC-BSA-loaded PPSU20 vesicular nanogels; type: biochemical; details: overloaded 10 mg/mL sample; trypsin 2 μg/mL, 24 h, 37° C.
T1 construct: purchased Promega
Method: Trypsin digestion of FITC-BSA-loaded PPSU20 vesicular nanogels. DMSO solutions of PPSU20 (200 μL, 25 mg/mL) were hydrated using 800 μL of aqueous FITC-BSA solutions (0, 0.1, 1.0, 10.0 mg/mL). DMSO was removed by dialysis after self-assembly. Negatively stained FITC-BSA-loaded PPSU20 vesicular nanogels were characterized by TEM. After removal of unloaded FITC-BSA by three rounds of centrifugation and resuspension in phosphate-buffered saline, FITC-BSA-loaded PPSU20 vesicular nanogels were subjected to digestion with trypsin protease (2 μg/mL; Trypsin Gold, Promega) for 24 h at 37° C., 80 rpm. Undigested FITC-BSA-loaded PPSU20 vesicular nanogels (i.e. no protease treatment) were included as a control. After 24 h incubation with trypsin, FITC fluorescence (Ex=490 nm, Em=525 nm) was quantified in triplicate using a SpectraMax M3 microplate reader (Molecular Devices). The percentage increase in FITC fluorescence (i.e., 100×(F(+)−F(−))/F(−)) after proteolysis was calculated, where F(+) is the fluorescence after protease treatment and F(−) is referred to the fluorescence in the absence of protease treatment.

[3] = PPSU20 vesicular nanogels formed with a concentration series of FITC-BSA (DLS, zeta potential, encapsulation); type: physicochemical
[4] = Adsorption of FITC-BSA by preformed PPSU20 vesicular nanogels; type: physicochemical; details: fluorescence in 0.2 N NaOH
Method: PPSU20 vesicular nanogels were prepared by mixing 100 μL of water or 100 μL of aqueous FITC-BSA (1.0 mg/mL) solution with 100 μL of PPSU20 solution (25 mg/mL in DMSO) under vortex, followed by the addition of 1000 μL of water. Nanogels were collected by centrifugation and purified by 2 rounds of resuspension and centrifugation in 1000 μL of water. The preformed blank vesicular nanogels were further incubated with 100 μL of aqueous FITC-BSA (1.0 mg/mL) solution overnight, giving FITC-BSA-adsorbed nanogels after removal of free FITC-BSA by three rounds of centrifugation and resuspension in water. Blank nanogels, FITC-BSA-loaded nanogels, and FITC-BSA-adsorbed nanogels were resuspened in 1000 μL of water for fluorescence measurements or as the stocking solutions for fluorescence quantitative analysis in sodium hydroxide solution (0.2 N).

[5] = PPSU nanogel biodistribution and toxicity after subcutaneous injection; type: in vivo; details: mice, s.c. injection, 48 h, NIRF/IVIS
Method: Assessment of PPSU NBM biodistribution and toxicity: Preliminary assessment of vesicular PPSU nanogel biodistribution 48 h after subcutaneous (s.c.) injection (relevant for vaccination) was performed using near infrared fluorescence (NIRF) agent cardiogreen (ICG) as previously published by the Scott lab^1.

[6] = 10 μL/step, mass ratio (drug/PPSU20) 0.004
[7] = 100 μL/step, mass ratio (drug/PPSU20) 0.004
[8] = 10 μL/step, mass ratio (drug/PPSU20) 0.08
[9] = 100 μL/step, mass ratio (drug/PPSU20) 0.08

T1 sequence (P00761 9-231): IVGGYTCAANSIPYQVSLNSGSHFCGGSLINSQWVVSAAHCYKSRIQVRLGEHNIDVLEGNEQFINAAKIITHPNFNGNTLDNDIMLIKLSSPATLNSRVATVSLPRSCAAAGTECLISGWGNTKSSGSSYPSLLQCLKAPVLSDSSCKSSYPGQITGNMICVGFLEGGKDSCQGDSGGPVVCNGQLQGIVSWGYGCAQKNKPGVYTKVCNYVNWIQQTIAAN

`CCN(CC)c1ccc2nc3c4ccccc4c(=O)cc-3oc2c1` [Nile red] showed an Encapsulation efficiency [1, 6] of over 96% and an Encapsulation efficiency [1, 7] of over 98%.
Work on fluorescein isothiocyanate [FITC] yielded an Encapsulation efficiency [1, 6] of over 99% and an Encapsulation efficiency [1, 7] of over 99%.
In the case of `CS(C)(=O)=O` [dimethylsulfone], the Solubility in water [2] is reported as “good water-solubility”.
Compound Dextran has an Encapsulation efficiency [1, 8] of over 96% and an Encapsulation efficiency [1, 9] of over 96%.
For “Albumin: FITC-labeled albumin (FITC-BSA), a model protein; Table 1 entries 5 to 8”, the “encapsulated FITC-BSA accessible to cleavage” value (trypsin protease) was 30-35%, the “protein by mass in nanogels” value ([3]; 10 mg/mL of protein, 3.6 mg FITC-BSA/5 mg PPSU) was 72% and the EE ([3]; in the presence of 10 mg/mL of protein) was 45%. The EE ([3]; loading of FITC-BSA at 0.1 mg/mL) was “approximately 100%”, the EE ([3]; loading of FITC-BSA at 1.0 mg/mL) was “approximately 100%” and the Encapsulation efficiency ([4]; FITC-BSA-loaded vesicles, Em=518 nm) was 97.8%. For the same compound, the adsorption efficiency ([4]; preformed blank vesicles incubated with FITC-BSA overnight) was 6.0%, the Encapsulation efficiency [1, 8] was over 99% and the Encapsulation efficiency ([1]; 10 μL/step, mass ratio (drug/PPSU20) 0.4) was over 99%. For the same compound, the Encapsulation efficiency ([1]; 10 μL/step, mass ratio (drug/PPSU20) 0.8) was over 96%, the Encapsulation efficiency ([1]; 10 μL/step, mass ratio (drug/PPSU20) 1.2) was 83% and the Encapsulation efficiency [1, 9] was over 99%. The Encapsulation efficiency ([1]; 100 μL/step, mass ratio (drug/PPSU20) 0.4) was over 99%, the Encapsulation efficiency ([1]; 100 μL/step, mass ratio (drug/PPSU20) 0.8) was over 96% and the Encapsulation efficiency ([1]; 100 μL/step, mass ratio (drug/PPSU20) 1.2) was 80%. For the same compound, the “encapsulation capacity (w/w)” value ([1]; Table 1, entry 5 to 7) was “up to 80%”, the “encapsulation of protein molecules from aqueous solutions” value ([1]; Table 1, entry 5 to 7) was about 100% and the EE ([1]; nanoparticles contained 20% more protein than polymer by mass (Table 1, entry 8)) was “Over 80%”.
Compound `COc1cccc2c1C(=O)c1c(O)c3c(c(O)c1C2=O)C[C@@](O)(C(=O)CO)C[C@@H]3O[C@H]1C[C@H](N)[C@H](O)[C@H](C)O1.Cl` [DOX/HCl, doxorubicin hydrochloride] has an Encapsulation efficiency [1, 8] of over 96% and an Encapsulation efficiency [1, 9] of over 97%.
In the case of `CC1(C)C(/C=C/C=C/C=C/C=C2\N(CCCCS(=O)(=O)[O-])c3ccc4ccccc4c3C2(C)C)=[N+](CCCCS(=O)(=O)[O-])c2ccc3ccccc3c21.[Na+]` [ICG], the “biodistribution (organs)” value [5] is reported as “heart, brain and kidneys”.
